Results from patent US5747453.

Target: PTH receptor (rat) (UniProt P25961)
Sequence (P25961 27-591): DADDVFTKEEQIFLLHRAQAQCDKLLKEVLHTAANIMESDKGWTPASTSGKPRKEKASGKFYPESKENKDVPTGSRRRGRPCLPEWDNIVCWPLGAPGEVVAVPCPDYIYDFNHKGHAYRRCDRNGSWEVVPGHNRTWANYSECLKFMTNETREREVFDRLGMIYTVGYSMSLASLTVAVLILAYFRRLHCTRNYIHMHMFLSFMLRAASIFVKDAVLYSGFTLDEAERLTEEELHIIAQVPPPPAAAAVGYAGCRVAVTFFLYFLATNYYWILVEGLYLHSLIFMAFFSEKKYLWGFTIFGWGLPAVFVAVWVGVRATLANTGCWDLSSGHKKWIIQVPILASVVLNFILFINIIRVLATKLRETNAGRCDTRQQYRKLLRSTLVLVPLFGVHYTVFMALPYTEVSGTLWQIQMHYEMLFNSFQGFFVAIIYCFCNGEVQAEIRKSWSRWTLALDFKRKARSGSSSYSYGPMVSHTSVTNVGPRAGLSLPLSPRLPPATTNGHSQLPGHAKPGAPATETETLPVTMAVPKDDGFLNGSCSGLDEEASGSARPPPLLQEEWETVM

PTH analog 1 (1-35) (ligand), sequence (peptide): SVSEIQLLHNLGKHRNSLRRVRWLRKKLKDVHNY

cAMP concentration (adenylate cyclase stimulation) in UMR106 cells, scintillation proximity assay	Substance
0.9 nM	PTH analog 1 (1-35) (ligand)
4.4 nM	Synthetic PTH having the wild-type sequence (ligand)
